Reference: the supplement of paper PMC10567573

B1: CPXM2 (parent)
chain: EILGCPLPDPNNYYHRRNEMTTTD
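Further: lentivirally expressed fusions sorted by FACS into six bins by GFP to DsRed ratio, PSI derived from sequencing read proportions per bin multiplied by bin number.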

Variants of: B1
Experiment: protein stability index of a GFP-peptide fusion (GPS, HEK-293T) (PSI 1-6); higher = more stable
Settings: c terminus: a fixed tail appended
Variant EILGCPLPWPNNYYHRRNEMTTTD [D9W] has a protein stability index of 2.44.
For EILGCPLPFPNNYYHRRNEMTTTD [D9F], the protein stability index was 2.68.
Work on EILGCPLPAPNNYYHRRNEMTTTD [D9A] yielded a protein stability index of 3.07.
Work on EILGCPLPDPNNYLHRRNEMTTTD [Y14L] yielded a protein stability index of 3.68.
For EILGCPLPDPNNYTHRRNEMTTTD [Y14T], the protein stability index was 4.29.
In the case of EILGCPLPDPNNYRHRRNEMTTTD [Y14R], the protein stability index is reported as 3.92.
Variant EILGCPLPDPNNYNHRRNEMTTTD [Y14N] has a protein stability index of 4.17.
Variant EILGCPLPDPNNYMHRRNEMTTTD [Y14M] has a protein stability index of 3.57.
Variant ESLGCPLPDPNNYYHRRNEMTTTD [I2S] has a protein stability index of 4.51.
EPLGCPLPDPNNYYHRRNEMTTTD [I2P] showed a protein stability index of 4.87.
Variant ELLGCPLPDPNNYYHRRNEMTTTD [I2L] has a protein stability index of 3.34.
Variant EMLGCPLPDPNNYYHRRNEMTTTD [I2M] has a protein stability index of 4.04.
Work on EQLGCPLPDPNNYYHRRNEMTTTD [I2Q] yielded a protein stability index of 4.76.
ECLGCPLPDPNNYYHRRNEMTTTD [I2C] showed a protein stability index of 3.98.
Variant ERLGCPLPDPNNYYHRRNEMTTTD [I2R] has a protein stability index of 4.28.
With EALGCPLPDPNNYYHRRNEMTTTD [I2A] the protein stability index was 4.51.
Work on ETLGCPLPDPNNYYHRRNEMTTTD [I2T] yielded a protein stability index of 4.32.
Work on EFLGCPLPDPNNYYHRRNEMTTTD [I2F] yielded a protein stability index of 3.75.
EDLGCPLPDPNNYYHRRNEMTTTD [I2D] gave a protein stability index of 4.86.
With EILGCPLPDPNNYYHRRNEMTTTP [D24P] the protein stability index was 2.49.
In the case of EILGCPLPDPNNYYHRRNEMTTTI [D24I], the protein stability index is reported as 1.82.
With EILGCPLPDPNNYYHRRNEMTTTH [D24H] the protein stability index was 2.76.
EILGCPLPDPNNYYHRRNEMTTTM [D24M] gave a protein stability index of 2.28.
EILGCPLPDPNNYYHRRNEMTTTF [D24F] showed a protein stability index of 1.47.
Work on EILGCPLPDPNNYYHRRNEMTTTC [D24C] yielded a protein stability index of 2.86.
With EILGCPLPDPNNYYHRRNEMTTTG [D24G] the protein stability index was 2.76.
For EILGCPLPDPNNYYHRRNEMTTTQ [D24Q], the protein stability index was 2.91.
With EILGCPLPDPNNYYHRRNEMTTYD [T23Y] the protein stability index was 3.13.
With EILGCPLPDPNNYYHRRNEMTTMD [T23M] the protein stability index was 2.78.
In the case of EILGCPLPDPNNYYHRRNEMTTAD [T23A], the protein stability index is reported as 3.65.
Variant EILGCPLPDPNNYYHRRNEMTTQD [T23Q] has a protein stability index of 3.54.
Variant EILGCPLPDPNNYYHRRNEMTTFD [T23F] has a protein stability index of 2.43.
VILGCPLPDPNNYYHRRNEMTTTD [E1V] showed a protein stability index of 2.4.
Variant GILGCPLPDPNNYYHRRNEMTTTD [E1G] has a protein stability index of 3.58.
HILGCPLPDPNNYYHRRNEMTTTD [E1H] gave a protein stability index of 3.16.
MILGCPLPDPNNYYHRRNEMTTTD [E1M] showed a protein stability index of 2.23.
AILGCPLPDPNNYYHRRNEMTTTD [E1A] showed a protein stability index of 3.2.
For FILGCPLPDPNNYYHRRNEMTTTD [E1F], the protein stability index was 1.83.
For SILGCPLPDPNNYYHRRNEMTTTD [E1S], the protein stability index was 3.54.
LILGCPLPDPNNYYHRRNEMTTTD [E1L] gave a protein stability index of 2.63.
In the case of EILGCPLPDPNNYYNRRNEMTTTD [H15N], the protein stability index is reported as 3.68.
EILGCPLPDPNNYYRRRNEMTTTD [H15R] showed a protein stability index of 3.31.
With EILGCPLPDPNNYYKRRNEMTTTD [H15K] the protein stability index was 3.76.
Work on EILGCPLPDPNNYYCRRNEMTTTD [H15C] yielded a protein stability index of 2.71.
Work on EILGCPLPDPNNYYFRRNEMTTTD [H15F] yielded a protein stability index of 3.33.
EILGCPLPDPYNYYHRRNEMTTTD [N11Y] showed a protein stability index of 3.13.
EILGCPLPDPWNYYHRRNEMTTTD [N11W] gave a protein stability index of 2.29.
Work on EILGCPLPDPPNYYHRRNEMTTTD [N11P] yielded a protein stability index of 3.84.
With EILGCPLPDPKNYYHRRNEMTTTD [N11K] the protein stability index was 3.47.
With EILGCPLPDPINYYHRRNEMTTTD [N11I] the protein stability index was 2.48.
EILGCPLPDPTNYYHRRNEMTTTD [N11T] showed a protein stability index of 3.48.
In the case of EILGCPLPDPNNYYHMRNEMTTTD [R16M], the protein stability index is reported as 3.48.
Work on EILGCPLPDPNNYYHHRNEMTTTD [R16H] yielded a protein stability index of 3.56.
With EILGCPLPDPNNYYHPRNEMTTTD [R16P] the protein stability index was 3.55.
With EILGCPLPDPNNYYHDRNEMTTTD [R16D] the protein stability index was 3.98.
Work on EILGCPLPDPNNYYHVRNEMTTTD [R16V] yielded a protein stability index of 3.19.
In the case of EILGCPLPDPNNYYHYRNEMTTTD [R16Y], the protein stability index is reported as 2.83.
In the case of EILGCPLPDPNNYYHFRNEMTTTD [R16F], the protein stability index is reported as 2.71.
Variant EILGCPLPDPNNYYHQRNEMTTTD [R16Q] has a protein stability index of 4.03.
For EILGCPLPDPNNYYHERNEMTTTD [R16E], the protein stability index was 3.94.
With EILGCPLPDPNNYYHLRNEMTTTD [R16L] the protein stability index was 3.28.
For EILGCPLPDPNNYYHKRNEMTTTD [R16K], the protein stability index was 3.52.
With EILGCPQPDPNNYYHRRNEMTTTD [L7Q] the protein stability index was 3.68.
With EILGCPRPDPNNYYHRRNEMTTTD [L7R] the protein stability index was 3.69.
EILGCPDPDPNNYYHRRNEMTTTD [L7D] showed a protein stability index of 4.04.
EILGCPCPDPNNYYHRRNEMTTTD [L7C] gave a protein stability index of 3.83.
Work on EILGCPWPDPNNYYHRRNEMTTTD [L7W] yielded a protein stability index of 3.32.
In the case of EILGCPLPDPNNYYHRFNEMTTTD [R17F], the protein stability index is reported as 2.48.
EILGCPLPDPNNYYHRKNEMTTTD [R17K] gave a protein stability index of 3.62.
For EILGCPLPDPNNYYHRDNEMTTTD [R17D], the protein stability index was 4.64.
With EILGCPLPDPNNYYHRQNEMTTTD [R17Q] the protein stability index was 4.02.
EILGCPLPDPNNYYHRPNEMTTTD [R17P] gave a protein stability index of 4.15.
EILGCPLPDPNNYYHRCNEMTTTD [R17C] gave a protein stability index of 2.98.
With EILFCPLPDPNNYYHRRNEMTTTD [G4F] the protein stability index was 2.69.
With EILACPLPDPNNYYHRRNEMTTTD [G4A] the protein stability index was 3.35.
Work on EILTCPLPDPNNYYHRRNEMTTTD [G4T] yielded a protein stability index of 3.49.
For EILKCPLPDPNNYYHRRNEMTTTD [G4K], the protein stability index was 3.39.
Variant EILNCPLPDPNNYYHRRNEMTTTD [G4N] has a protein stability index of 2.93.
For EILICPLPDPNNYYHRRNEMTTTD [G4I], the protein stability index was 2.72.
Variant EILPCPLPDPNNYYHRRNEMTTTD [G4P] has a protein stability index of 4.03.
Variant EILYCPLPDPNNYYHRRNEMTTTD [G4Y] has a protein stability index of 3.13.
In the case of EILECPLPDPNNYYHRRNEMTTTD [G4E], the protein stability index is reported as 4.09.
Work on EILVCPLPDPNNYYHRRNEMTTTD [G4V] yielded a protein stability index of 3.41.
In the case of EILWCPLPDPNNYYHRRNEMTTTD [G4W], the protein stability index is reported as 2.77.
EILSCPLPDPNNYYHRRNEMTTTD [G4S] gave a protein stability index of 3.57.
EILMCPLPDPNNYYHRRNEMTTTD [G4M] showed a protein stability index of 3.15.
EILGCPLPDPNNYYHRRNEQTTTD [M20Q] gave a protein stability index of 4.42.
EILGCPLPDPNNYYHRRNEATTTD [M20A] gave a protein stability index of 3.99.
In the case of EILGCPLPDPNNYYHRRNEKTTTD [M20K], the protein stability index is reported as 3.53.
Work on EILGCPLPDPNNYYHRRNEYTTTD [M20Y] yielded a protein stability index of 2.46.
In the case of EILGCPLPDPNNYYHRRNECTTTD [M20C], the protein stability index is reported as 3.69.
Work on EILGCPLPDPNNYYHRRNEDTTTD [M20D] yielded a protein stability index of 4.35.
EILGCPLPDPNNYYHRRNEHTTTD [M20H] gave a protein stability index of 3.69.
Work on EILGCPLPDPNNYYHRRNELTTTD [M20L] yielded a protein stability index of 2.95.
